According to article PMC5430804, “Structural and biochemical insights of CypA and AIF interaction” (Scientific Reports, 2017):

B10: AIF(370-394) synthetic peptide (peptide, UniProt O95831 370-394, looked up)
peptide: QSVGVSSGKLLIKLKDGRKVETDHI
notes: also called AIF peptide; source: synthetic peptide

Key:
Conditions in all cases: both partners purified
[1] = molecular target: B10; assay: EnSpire label-free direct binding assay; direct binding of CypA peptides, CypA or CypA R55A with AIF(370-394) or AIF(Δ1-121); details (who was immobilised) in the Supplementary Information
[2] = molecular target: T1, Apoptosis Inducing Factor, pro-apoptotic form AIF(Δ1-121) (UniProt O95831 122-613); assay: as above
T1 construct: also called apoptogenic form of AIF

[3] = molecular target: T2, His-tagged Cyclophilin A (CypA) (UniProt P62937 1-165); assay: as above
T2 construct: Cyclophilin A (CypA), peptidyl-prolyl isomerase; Uniformly 15N-labelled for the NMR experiments, unlabelled elsewhere; also called CypA wild type; 15N-CypA; source: bacteria, IPTG-induced, purified (His-trap HP, size exclusion chromatography)

CypA R55A mutant = molecular target: T3, CypA R55A mutant (UniProt P62937 1-165, R55A); assay: as above
T3 construct: Cyclophilin A (CypA) with R55A; the R55A mutant corresponding to His-tagged CypA; The starting construct carried a Myc tag; also called R55A CypA mutant; R55A mutated CypA; source: prepared starting from the construct pCMV6-AC-Myc-CypA^R55A

[4] = molecular target: T2, His-tagged Cyclophilin A (CypA); assay: ITC; AIF(370-394) 0.7 mM injected (20 x 2 μL) into CypA 5 μM, 25 °C, PBS 1X with 1 mM DTT, pH 7.4; single-site model; triplicate

T1 sequence (O95831 122-613, stated change not applied): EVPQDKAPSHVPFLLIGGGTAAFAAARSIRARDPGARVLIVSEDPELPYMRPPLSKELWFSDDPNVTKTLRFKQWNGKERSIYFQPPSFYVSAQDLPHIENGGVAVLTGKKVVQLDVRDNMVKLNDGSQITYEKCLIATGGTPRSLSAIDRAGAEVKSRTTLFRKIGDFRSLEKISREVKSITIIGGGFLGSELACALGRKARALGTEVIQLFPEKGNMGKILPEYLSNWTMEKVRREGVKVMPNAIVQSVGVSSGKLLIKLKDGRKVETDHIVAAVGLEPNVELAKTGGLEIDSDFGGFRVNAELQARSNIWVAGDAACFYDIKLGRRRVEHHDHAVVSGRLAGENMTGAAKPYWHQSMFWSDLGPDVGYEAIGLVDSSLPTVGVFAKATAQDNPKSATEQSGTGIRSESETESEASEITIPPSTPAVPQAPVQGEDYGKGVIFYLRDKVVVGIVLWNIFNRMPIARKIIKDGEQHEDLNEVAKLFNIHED
T2 sequence (P62937 whole entry): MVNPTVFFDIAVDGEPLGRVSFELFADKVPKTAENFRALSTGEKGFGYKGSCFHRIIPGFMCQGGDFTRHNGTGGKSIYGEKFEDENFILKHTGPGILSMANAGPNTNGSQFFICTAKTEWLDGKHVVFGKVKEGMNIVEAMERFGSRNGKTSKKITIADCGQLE
T3 sequence (P62937 whole entry R55A): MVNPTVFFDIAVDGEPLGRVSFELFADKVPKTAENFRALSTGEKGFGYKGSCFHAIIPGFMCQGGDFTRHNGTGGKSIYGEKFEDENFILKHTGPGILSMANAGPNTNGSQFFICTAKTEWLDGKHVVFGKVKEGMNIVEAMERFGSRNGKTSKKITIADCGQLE

B1: CypA(55-69) + (67–79), two peptides tested in combination (other)
peptide 1: RIIPGFMCQGGDFTR
peptide 2: FTRHNGTGGKSIY
notes: Cyclophilin A (CypA), residues 55-69; Cyclophilin A (CypA), residues 67-79; A mixture of separate peptides; source: synthetic peptides, combined
Kd [1]: 34.9 ± 8.1 µM | Kd [2]: 51.4 ± 12.2 µM

B2: CypA(55-69) + (49–62), two peptides tested in combination (other)
peptide 1: RIIPGFMCQGGDFTR
peptide 2: KGSCFHRIIPGFMC
notes: Cyclophilin A (CypA), residues 55-69; Cyclophilin A (CypA), residues 49-62; A mixture of separate peptides; source: synthetic peptides, combined
Kd [1]: 4.6 ± 1.3 µM | Kd [2]: 2.2 ± 0.7 µM

B3: CypA(67-79) + (49–62), two peptides tested in combination (other)
peptide 1: FTRHNGTGGKSIY
peptide 2: KGSCFHRIIPGFMC
notes: Cyclophilin A (CypA), residues 67-79; Cyclophilin A (CypA), residues 49-62; A mixture of separate peptides; source: synthetic peptides, combined
Kd [1]: 3.1 ± 1.3 µM | Kd [2]: 2.8 ± 0.9 µM

B4: CypA(55-69) + (67–79) + (49-62), three peptides tested in combination (other)
peptide 1: RIIPGFMCQGGDFTR
peptide 2: FTRHNGTGGKSIY
peptide 3: KGSCFHRIIPGFMC
notes: Cyclophilin A (CypA), residues 55-69; Cyclophilin A (CypA), residues 67-79; Cyclophilin A (CypA), residues 49-62; A mixture of separate peptides; source: synthetic peptides, combined; copies: + +
Kd [1]: 20.7 ± 6.5 µM | Kd [2]: 25.2 ± 5 µM

B5: CypA(121-131) + (99–109), two peptides tested in combination (other)
peptide 1: WLDGKHVVFGK
peptide 2: SMANAGPNTNG
notes: Cyclophilin A (CypA), residues 99-109; A mixture of separate peptides; source: synthetic peptides, combined
Kd [1]: 43 ± 6.8 µM | Kd [2]: 27.2 ± 5.8 µM

B6: CypA(121-131) + (83–90), two peptides tested in combination (other)
peptide 1: WLDGKHVVFGK
peptide 2: FEDENFIL
notes: Cyclophilin A (CypA), residues 83-90; A mixture of separate peptides; source: synthetic peptides, combined
Kd [1]: 87 ± 5.8 µM | Kd [2]: 31.3 ± 2.8 µM

B7: CypA(99-109) + (83–90), two peptides tested in combination (other)
peptide 1: SMANAGPNTNG
peptide 2: FEDENFIL
notes: Cyclophilin A (CypA), residues 99-109; Cyclophilin A (CypA), residues 83-90; A mixture of separate peptides; source: synthetic peptides, combined
Kd [1]: 304 ± 10.8 µM

B8: CypA(121-131) + (99–109) + (83-90), three peptides tested in combination (other)
peptide 1: WLDGKHVVFGK
peptide 2: SMANAGPNTNG
peptide 3: FEDENFIL
notes: Cyclophilin A (CypA), residues 99-109; Cyclophilin A (CypA), residues 83-90; A mixture of separate peptides; source: synthetic peptides, combined; copies: + +
Kd [1]: 268 ± 9.65 µM | Kd [2]: 38.8 ± 4.6 µM

B9: CypA(55-69) peptide with R69 replaced by alanine (peptide, UniProt P62937 55-69, looked up)
peptide: RIIPGFMCQGGDFTA
notes: Cyclophilin A (CypA), residues 55-69, R69 replaced by alanine; also called CypA(55-69)R69; source: synthetic peptide
Kd [2]: > 1000 µM

B10
Kd [3]: 3 ± 0.6 µM | Kd (CypA R55A mutant): 3.1 ± 0.7 µM | Kd [4]: 6 µM
